Patent US7790365B2, “Assays for modulators of parkin activity using S5a as a parkin substrate” (Elan Pharma International Limited, priority 2007, dated 2010)
“Also recorded” adds a separate entry of the source.

How the values were obtained:
S5a [1] = assay: thermal denaturation of E3 ligases (S5a ubiquitination after pre-incubation); assay type: biochemical; conditions: for Thermal Denaturation Temperature (temperature at which approximately 50% of activity was lost): E3 pre-incubated 90 minutes at 4° C. to 60° C., then S5a ubiquitination 60 minutes at 37° C.
Experimental: To characterize the thermal denaturation properties E3 ligases, the E3 was pre-incubated for 90 minutes at a temperature ranging from 4° C. to 60° C. (Mdm2 and Nedd4 at 4, 37, 45, 50 and 60° C.; Murf1 at 4, 37, 50, 60, 70 and 80° C.; E6AP at 37, 39, 41, 43, and 45° C. At 90 minutes, a pre-mix was made containing 50 nM E1, 1 mM Mg-ATP, 5 μM UbcH7 (UbcH5a for Mdm2 and Murf1), 200 nM ubiquitin and 200 nM S5a. The pre-mix was added to 0.2 mg/mL of E3 ligase and incubated at 37° C. for 60 minutes. Samples were run on SDS-PAGE and assessed by Western blotting using monoclonal antibody to S5a (BioMol).

S5a [2] = assay: ubiquitination assay of E3 ligases using S5a as the substrate; assay type: biochemical; conditions: 0.2 mg/mL E3, 200 nM S5a, 1 hour at 37° C., Western blot
Experimental: For each E3 ligase, a ubiquitination assay using S5a as the substrate was carried out. Briefly, the ubiquitination reaction contained 50 nM E1, 1 mM MgATP, 5 μM UbcH7, 0.2 mg/mL E3, 200 nM ubiquitin, and 200 nM S5a. Ubiquitination reactions were incubated for 1 hour at 37° C. and samples were taken at time 0, 30′ and 60′. Samples were run on SDS-PAGE, transferred to immobilon and Western blotted using monoclonal antibody to S5a (BioMol).

“GST-E6AP: GST fusion of Human papillomavirus E6-associated protein, HECT E3 ligase” was tested, and the “Thermal Denaturation Temperature (temperature at which approximately 50% of activity was lost)” value (S5a [1]) was 41 °C, the “Thermal Denaturation Temperature (temperature at which approximately 50% of activity was lost)” value (S5a [1]; listed as E6AP) was 41 °C and the “Ubiquitinated S5a?” value (S5a [2]) was “Yes”.

B1: GST-Murf1: GST fusion of Muscle-specific RING finger protein 1, RING E3 ligase (protein)
chain: MDYKSSLIQDGNPMENLEKQLICPICLEMFTKPVVILPCQHNLCRKCANDIFQAANPYWTSRGSSVSMSGGRFRCPTCRHEVIMDRHGVYGLQRNLLVENIIDIYKQECSSRPLQKGSHPMCKEHEDEKINIYCLTCEVPTCSMCKVFGIHKACEVAPLQSVFQGQKTELNNCISMLVAGNDRVQTIITQLEDSRRVTKENSHQVKEELSQKFDTLYAILDEKKSELLQRITQEQEKKLSFIEALIQQYQEQLDKSTKLVETAIQSLDEPGGATFLLTAKQLIKSIVEASKGCQLGKTEQGFENMDFFTLDLEHIADALRAIDFGTDEEEEEFIEEEDQEEEESTEGKEEGHQ
modifications: left off: a dimerising Fc or GST
notes: GST fusion of Muscle-specific RING finger protein 1, RING E3 ligase
For B1, the “Thermal Denaturation Temperature (temperature at which approximately 50% of activity was lost)” value (S5a [1]) was 60 °C, the “Thermal Denaturation Temperature (temperature at which approximately 50% of activity was lost)” value (S5a [1]; listed as Murf1) was 60 °C and the “Ubiquitinated S5a?” value (S5a [2]) was “Yes”.

B2: His-CHIP: His-tagged carboxyl terminus of Hsp70-interacting protein, U-box E3 ligase (protein)
chain: MKGKEEKEGGARLGAGGGSPEKSPSAQELKEQGNRLFVGRKYPEAAACYGRAITRNPLVAVYYTNRALCYLKMQQHEQALADCRRALELDGQSVKAHFFLGQCQLEMESYDEAIANLQRAYSLAKEQRLNFGDDIPSALRIAKKKRWNSIEERRIHQESELHSYLSRLIAAERERELEECQRNHEGDEDDSHVRAQQACIEAKHDKYMADMDELFSQVDEKRKKRDIPDYLCGKISFELMREPCITPSGITYDRKDIEEHLQRVGHFDPVTRSPLTQEQLIPNLAMKEVIDAFISENGWVEDY
modifications: left off: small tags and cut ends
In the case of B2, the “Ubiquitinated S5a?” value (S5a [2]) is reported as “Yes” and the “Ubiquitinated S5a?” value (S5a [2]; listed as CHIP) is reported as “reasonable activity”.

B3: GST-parkin: GST fusion of parkin, RING class E3 ligase (protein)
chain: MIVFVRFNSSHGFPVEVDSDTSIFQLKEVVAKRQGVPADQLRVIFAGKELRNDWTVQNCDLDQQSIVHIVQRPWRKGQEMNATGGDDPRNAAGGCEREPQSLTRVDLSSSVLPGDSVGLAVILHTDSRKDSPPAGSPAGRSIYNSFYVYCKGPCQRVQPGKLRVQCSTCRQATLTLTQGPSCWDDVLIPNRMSGECQSPHCPGTSAEFFFKCGAHPTSDKETSVALHLIATNSRNITCITCTDVRSPVLVFQCNSRHVICLDCFHLYCVTRLNDRQFVHDPQLGYSLPCVAGCPNSLIKELHHFRILGEEQYNRYQQYGAEECVLQMGGVLCPRPGCGAGLLPEPDQRKVTCEGGNGLGCGFAFCRECKEAYHEGECSAVFEASGTTTQAYRVDERAAEQARWEAASKETIKKTTKPCPRCHVPVEKNGGCMHMKCPQPQCRLEWCWNCGCEWNRVCMGDHWFDV
modifications: left off: a dimerising Fc or GST
notes: GST fusion of parkin, RING class E3 ligase
B3 was tested, and the “Thermal Denaturation Temperature (temperature at which approximately 50% of activity was lost)” value (S5a [1]) was 49 °C and the “Ubiquitinated S5a?” value (S5a [2]) was “Yes”.

B4: GST-Nedd4: GST fusion of Nedd4, HECT E3 ligase (protein)
chain: MATCAVEVFGLLEDEENSRIVRVRVIAGIGLAKKDILGASDPYVRVTLYDPMNGVLTSVQTKTIKKSLNPKWNEEILFRVHPQQHRLLFEVFDENRLTRDDFLGQVDVPLYPLPTENPRLERPYTFKDFVLHPRSHKSRVKGYLRLKMTYLPKTSGSEDDNAEQAEELEPGWVVLDQPDAACHLQQQQEPSPLPPGWEERQDILGRTYYVNHESRRTQWKRPTPQDNLTDAENGNIQLQAQRAFTTRRQISEETESVDNRESSENWEIIREDEATMYSNQAFPSPPPSSNLDVPTHLAEELNARLTIFGNSAVSQPASSSNHSSRRGSLQAYTFEEQPTLPVLLPTSSGLPPGWEEKQDERGRSYYVDHNSRTTTWTKPTVQATVETSQLTSSQSSAGPQSQASTSDSGQQVTQPSEIEQGFLPKGWEVRHAPNGRPFFIDHNTKTTTWEDPRLKIPAHLRGKTSLDTSNDLGPLPPGWEERTHTDGRIFYINHNIKRTQWEDPRLENVAITGPAVPYSRDYKRKYEFFRRKLKKQNDIPNKFEMKLRRATVLEDSYRRIMGVKRADFLKARLWIEFDGEKGLDYGGVAREWFFLISKEMFNPYYGLFEYSATDNYTLQINPNSGLCNEDHLSYFKFIGRVAGMAVYHGKLLDGFFIRPFYKMMLHKPITLHDMESVDSEYYNSLRWILENDPTELDLRFIIDEELFGQTHQHELKNGGSEIVVTNKNKKEYIYLVIQWRFVNRIQKQMAAFKEGFFELIPQDLIKIFDENELELLMCGLGDVDVNDWREHTKYKNGYSANHQVIQWFWKAVLMMDSEKRIRLLQFVTGTSRVPMNGFAELYGSNGPQSFTVEQWGTPEKLPRAHTCFNRLDLPPYESFEELWDKLQMAIENTQGFDGVD
modifications: left off: a dimerising Fc or GST
notes: GST fusion of Nedd4, HECT E3 ligase
B4 was tested, and the “S5a ubiquitination activity after thermal pre-incubation” value (S5a [1]; E3 pre-incubated 90 minutes at 4, 37, 45, 50 and 60° C.) was “did not show any activity when pre-incubated at temperatures higher than 4 °C; also recorded: lose activity following pre-incubation at any temperature except 4 °C”, the “Thermal Denaturation Temperature (temperature at which approximately 50% of activity was lost)” value (S5a [1]) was 37 °C and the “Ubiquitinated S5a?” value (S5a [2]) was “Yes”.

B5: GST-Siah2: GST fusion of Seven in absentia homolog 2, RING E3 ligase (protein)
chain: MSRPSSTGPSANKPCSKQPPPQPQHTPSPAAPPAAATISAAGPGSSAVPAAAAVISGPGGGGGAGPVSPQHHELTSLFECPVCFDYVLPPILQCQAGHLVCNQCRQKLSCCPTCRGALTPSIRNLAMEKVASAVLFPCKYATTGCSLTLHHTEKPEHEDICEYRPYSCPCPGASCKWQGSLEAVMSHLMHAHKSITTLQGEDIVFLATDINLPGAVDWVMMQSCFGHHFMLVLEKQEKYEGHQQFFAIVLLIGTRKQAENFAYRLELNGNRRRLTWEATPRSIHDGVAAAIMNSDCLVFDTAIAHLFADNGNLGINVTISTCCP
modifications: left off: a dimerising Fc or GST
notes: GST fusion of Seven in absentia homolog 2, RING E3 ligase
With B5 the “Ubiquitinated S5a?” value (S5a [2]) was “Yes (low)” and the “Ubiquitinated S5a?” value (S5a [2]; listed as Siah2) was “very low activity”.
